In doi:10.1101/202184 (bioRxiv, 2017):

B1: SecE (subunit of Escherichia coli SecYEG) (natural protein)
chain: MSANTEAQGSGRGLEAMKWVVVVALLLVAIVGNYLYRDIMLPLRALAVVILIAAAGGVALLTTKGKATVAFAREARTEVRKVIWPTRQETLHTTLIVAAVTAVMSLILWGLDGILVRLVSFITGLRF

Assays:
[1] = target: T1, SecY (wild type, subunit of Escherichia coli SecYEG) (E. coli, UniProt P0AGA2 1-443); assay: native MS
T1 sequence: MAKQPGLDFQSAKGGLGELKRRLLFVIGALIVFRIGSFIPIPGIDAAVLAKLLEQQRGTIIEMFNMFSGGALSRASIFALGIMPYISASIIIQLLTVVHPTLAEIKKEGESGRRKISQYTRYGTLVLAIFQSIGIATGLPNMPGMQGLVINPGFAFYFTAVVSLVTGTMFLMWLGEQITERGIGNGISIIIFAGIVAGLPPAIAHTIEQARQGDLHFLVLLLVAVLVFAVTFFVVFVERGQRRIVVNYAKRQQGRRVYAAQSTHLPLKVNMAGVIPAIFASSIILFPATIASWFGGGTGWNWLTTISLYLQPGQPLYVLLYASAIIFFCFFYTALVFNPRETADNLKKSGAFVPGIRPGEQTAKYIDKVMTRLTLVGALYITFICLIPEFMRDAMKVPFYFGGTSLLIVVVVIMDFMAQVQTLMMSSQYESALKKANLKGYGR

[2] = target: B1; assay: native MS

B1
binding result [1]: binds

B2: SecG (subunit of Escherichia coli SecYEG) (natural protein)
chain: MYEALLVVFLIVAIGLVGLIMLQQGKGADMGASFGAGASATLFGSSGSGNFMTRMTALLATLFFIISLVLGNINSNKTNKGSEWENLSAPAKTEQTQPAAPAKPTSDIPN
binding result [1]: binds | binding result [2]: binds
